Assay: Stability study of the conjugate in phosphate-buffered saline
Assay type: physicochemical
Conditions: 37° C.
Experimental: A stability study confirmed that the conjugate 4a is stable in phosphate-buffered saline (PBS) at least for 8 hours at 37° C., which is stable enough for PET applications.

N[C@@H](CCC(=O)N[C@@H](CSC1CC(=O)N(CCCCCCON=C[C@H](O)[C@H](O)[C@H](O)CF)C1=O)C(=O)NCC(=O)O)C(=O)O (stereo partly shown) [conjugate 4a]
stable in phosphate-buffered saline (PBS): ≥ 8 h
